Source: US20240366718A1 (IMMUNOS THERAPEUTICS, published 2024)

T1: ANGPTL2 (R&D systems, 9795-AN) (UniProt Q9UKU9 23-493, limits assumed)
T1 construct: also called ANGTPL2
T1 sequence (looked up): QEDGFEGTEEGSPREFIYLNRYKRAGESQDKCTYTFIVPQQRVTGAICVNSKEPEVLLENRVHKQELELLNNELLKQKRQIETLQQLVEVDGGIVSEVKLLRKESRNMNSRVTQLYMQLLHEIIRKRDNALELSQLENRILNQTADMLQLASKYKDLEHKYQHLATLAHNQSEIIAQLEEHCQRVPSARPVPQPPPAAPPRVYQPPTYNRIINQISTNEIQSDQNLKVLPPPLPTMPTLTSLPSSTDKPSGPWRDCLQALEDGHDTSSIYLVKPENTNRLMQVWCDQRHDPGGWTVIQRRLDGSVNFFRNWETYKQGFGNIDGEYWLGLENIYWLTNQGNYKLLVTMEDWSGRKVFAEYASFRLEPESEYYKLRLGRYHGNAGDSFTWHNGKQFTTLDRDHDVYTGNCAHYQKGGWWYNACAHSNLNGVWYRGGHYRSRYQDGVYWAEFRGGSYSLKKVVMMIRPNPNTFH

B1: LILRB2 (c-terminally biotinylated, BPS Bioscience #100335) (receptor, human, UniProt Q8N423 22-460, looked up)
chain: QTGTIPKPTLWAEPDSVITQGSPVTLSCQGSLEAQEYRLYREKKSASWITRIRPELVKNGQFHIPSITWEHTGRYGCQYYSRARWSELSDPLVLVMTGAYPKPTLSAQPSPVVTSGGRVTLQCESQVAFGGFILCKEGEDEHPQCLNSQPHARGSSRAIFSVGPVSPNRRWSHRCYGYDLNSPYVWSSPSDLLELLVPGVSKKPSLSVQPGPVMAPGESLTLQCVSDVGYDRFVLYKEGERDLRQLPGRQPQAGLSQANFTLGPVSRSYGGQYRCYGAHNLSSECSAPSDPLDILITGQIRGTPFISVQPGPTVASGENVTLLCQSWRQFHTFLLTKAGAADAPLRLRSIHEYPKYQAEFPMSPVTSAHAGTYRCYGSLNSDPYLLSHPSEPLELVVSGPSMGSSPPPTGPISTPGPEDQPLTPTGSDPQSGLGRHLGV
modifications: C-terminal biotin
notes: Bought biotinylated protein; also called human LILRB2; biotinylated LILRB2
B2: human LILRB1 (receptor, UniProt Q8NHL6 24-458, looked up)
chain: GHLPKPTLWAEPGSVITQGSPVTLRCQGGQETQEYRLYREKKTALWITRIPQELVKKGQFPIPSITWEHAGRYRCYYGSDTAGRSESSDPLELVVTGAYIKPTLSAQPSPVVNSGGNVILQCDSQVAFDGFSLCKEGEDEHPQCLNSQPHARGSSRAIFSVGPVSPSRRWWYRCYAYDSNSPYEWSLPSDLLELLVLGVSKKPSLSVQPGPIVAPEETLTLQCGSDAGYNRFVLYKDGERDFLQLAGAQPQAGLSQANFTLGPVSRSYGGQYRCYGAHNLSSEWSAPSDPLDILIAGQFYDRVSLSVQPGPTVASGENVTLLCQSQGWMQTFLLTKEGAADDPWRLRSTYQSQKYQAEFPMGPVTSAHAGTYRCYGSQSSKPYLLTHPSDPLELVVSGPSGGPSSPTTGPTSTSGPEDQPLTPTGSDPQSGLGRH
B3: ANGPTL7 (R&D systems, 914-AN) (ligand, UniProt O43827 27-346, looked up)
chain: QKLSKHKTPAQPQLKAANCCEEVKELKAQVANLSSLLSELNKKQERDWVSVVMQVMELESNSKRMESRLTDAESKYSEMNNQIDIMQLQAAQTVTQTSADAIYDCSSLYQKNYRISGVYKLPPDDFLGSPELEVFCDMETSGGGWTIIQRRKSGLVSFYRDWKQYKQGFGSIRGDFWLGNEHIHRLSRQPTRLRVEMEDWEGNLRYAEYSHFVLGNELNSYRLFLGNYTGNVGNDALQYHNNTAFSTKDKDNDNCLDKCAQLRKGGYWYNCCTDSNLNGVYYRLGEHNKHLDGITWYGWHGSTYSLKRVEMKIRPEDFKP

Legend:
[1] = molecular target: T1, ANGPTL2 (R&D systems, 9795-AN); experiment: BLI, biotinylated LILRB2 sensors, ANGPTL2 titrated with or without prior incubation of the sensor with iosH2
[2] = molecular target: T2, HLA-B57(A46E/V97R).β2m (HLA-B57 A46E/V97R IgG4 fusion protein associated with β2m) (human; homo sapiens); experiment: BLI
T2 construct: Complex secreted from CHO cells co-transfected with the fusion protein and β2m; also called iosH2; IosH2

[3] = molecular target: B1; experiment: BLI, biotinylated LILRB2 sensors, ANGPTL7 titrated with or without prior incubation of the sensor with iosH2

Binder: B1
binding result [1]: binds

Binder: B2
binding result [2]: binds

Binder: B3
binding result [3]: binds
